The values below are quoted from earlier work in patent publication US20130251731A1, “Tau Acetylation in the Pathogenesis of Alzheimers Disease and Other Related Tauopathies” (THE TRUSTEES OF THE UNIVERSITY OF PENNSYLVANIA, priority 2012, published 2013).

The series concerns histones and microtubules.

Like-named read-outs stand apart in the source and are kept apart here.

B1: αTAT-1: cytoplasmic α-tubulin acetyltransferase (protein, UniProt Q5SQI0 1-421, looked up)
Alpha-tubulin …: MEFPFDVDALFPERITVLDQHLRPPARRPGTTTPARVDLQQQIMTIIDELGKASAKAQNLSAPITSASRMQSNRHVVYILKDSSARPAGKGAIIGFIKVGYKKLFVLDDREAHNEVEPLCILDFYIHESVQRHGHGRELFQYMLQKERVEPHQLAIDRPSQKLLKFLNKHYNLETTVPQVNNFVIFEGFFAHQHRPPAPSLRATRHSRAAAVDPTPAAPARKLPPKRAEGDIKPYSSSDREFLKVAVEPPWPLNRAPRRATPPAHPPPRSSSLGNSPERGPLRPFVPEQELLRSLRLCPPHPTARLLLAADPGGSPAQRRRTRGTPPGLVAQSCCYSRHGGVNSSSPNTGNQDSKQGEQETKNRSASEEQALSQDGSGEKPMHTAPPQAPAPPAQSWTVGGDILNARFIRNLQERRSTRPW
What is called Km is the substrate concentration at which the rate is half of its maximum. For B1, the Kcat reads like this: (Shida et al., 2010) 0.000617 s⁻¹; (substrate as listed (H4-21, H3p19, H3, microtubules)) 0.000617 s⁻¹. In addition, the Km (substrate as listed (H4-21, H3p19, H3, microtubules), read-out: Km [protein]) was 1.6 µM.
